Reference: article PMC2788523, “Overexpression and characterization of medium-chain-length polyhydroxyalkanoate granule bound polymerases from Pseudomonas putida GPo1” (Microbial Cell Factories, 2009)

Substrate: CCCCC[C@@H](O)CC(=O)SCCNC(=O)CCNC(=O)[C@H](O)C(C)(C)COP(=O)(O)OP(=O)(O)OC[C@H]1O[C@@H](n2cnc3c(N)ncnc32)[C@H](O)[C@@H]1OP(=O)(O)O
Assay: cells, lysate or membranes
Type: biochemical, Ectopseudomonas oleovorans
Conditions: granule-bound enzyme (isolated PHA granules), 100 mM Tris-HCl pH 8, 1 mg/ml BSA, 0.5 mM MgCl2, substrate 0.0375-0.25 mM

| Protein | Km [µM] |
| --- | --- |
| PhaC2 (PHA polymerase 2), granule-bound (Ectopseudomonas oleovorans) (protein, overexpressed from pGEc404 in PHA-negative P. putida GPp104; assayed on isolated PHA granules (other granule proteins present)) MKDKPAKGTPTLPATSMNVQNAILGLRGRDLISTLRNVSRQSLRHPLHTAHHLLALGGQLGRVILGDTPLQPNPRDPRFSDPTWSQNPFYRRGLQAYLAWQKQTRLWIEESHLDDDDRARAHFLFNLINDALAPSNSLLNPLAVKELFNSGGQSLVRGVAHLLDDLRHNDGLPRQVDERAFEVGGNLAATAGAVVFRNELLELIQYKPMSEKQHARPLLVVPPQINKFYIFDLSSTNSFVQYMLKNGLQVFMVSWRNPDPRHREWGLSSYVQALEEALNACRSISGNRDPNLMGACAGGLTMAALQGHLQAKHQLRRVRSATYLVSLLDSKFESPASLFADEQTIEAAKRRSYQRGVLDGAEVARIFAWMRPNDLIWNYWVNNYLLGKTPPAFDILYWNADSTRLPAALHGDLLDFFKLNPLTHPAGLEVCGTPIDLQKVELDSFTVAGSNDHITPWDAVYRSALLLGGDRRFVLANSGHIQSIINPPGNPKAYYLANPKLSSDPRAWLHDAKRSEGSWWPLWLEWITARSGPLKAPRSELGNATYPPLGPAPGTYVLTR | 37 ± 10 |
| PhaC1 (PHA polymerase 1), granule-bound (Ectopseudomonas oleovorans) (protein, overexpressed from pGEc405 in PHA-negative P. putida GPp104; assayed on isolated PHA granules (other granule proteins present)) MSNKNNDELQRQASENTLGLNPVIGIRRKDLLSSARTVLRQAVRQPLHSAKHVAHFGLELKNVLLGKSSLAPESDDRRFNDPAWSNNPLYRRYLQTYLAWRKELQDWIGNSDLSPQDISRGQFVINLMTEAMAPTNTLSNPAAVKRFFETGGKSLLDGLSNLAKDLVNNGGMPSQVNMDAFEVGKNLGTSEGAVVYRNDVLELIQYKPITEQVHARPLLVVPPQINKFYVFDLSPEKSLARYCLRSQQQTFIISWRNPTKAQREWGLSTYIDALKEAVDAVLAITGSKDLNMLGACSGGITCTALVGHYAALGENKVNALTLLVSVLDTTMDNQVALFVDEQTLEAAKRHSYQAGVLEGSEMAKVFAWMRPNDLIWNYWVNNYLLGNEPPVFDILFWNNDTTRLPAAFHGDLIEMFKSNPLTRPDALEVCGTPIDLKQVKCDIYSLAGTNDHITPWQSCYRSAHLFGGKIEFVLSNSGHIQSILNPPGNPKARFMTGADRPGDPVAWQENATKHADSWWLHWQSWLGERAGELEKAPTRLGNRAYAAGEASPGTYVHER | 125 ± 35 |
